In patent publication US8147817B2, “IL-33 in the treatment and diagnosis of diseases and disorders” (The Brigham and Women's Hospital, Inc., priority 2006, dated 2012):
“Also recorded” adds a separate entry of the source. Like-named read-outs stand apart in the source and are kept apart here.

How the values were obtained:
mouse ST2 = target: T1, mouse ST2 (Mus musculus, UniProt P14719); experiment: Pull-down assay of recombinant IL-33 with mouse ST2-Fc protein; format: binding
T1 construct: purchased R&D
T1 sequence (P14719 27-337 isoform P14719-2 limits assumed): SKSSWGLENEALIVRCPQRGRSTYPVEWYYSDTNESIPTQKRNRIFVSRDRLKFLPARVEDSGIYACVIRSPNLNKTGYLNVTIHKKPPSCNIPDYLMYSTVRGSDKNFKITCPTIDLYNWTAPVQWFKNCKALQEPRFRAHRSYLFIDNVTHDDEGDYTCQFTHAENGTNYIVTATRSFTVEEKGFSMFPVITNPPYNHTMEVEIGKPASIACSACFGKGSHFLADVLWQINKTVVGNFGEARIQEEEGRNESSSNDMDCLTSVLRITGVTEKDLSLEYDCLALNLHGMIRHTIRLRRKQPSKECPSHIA
From the text: The GenBank™ accession number for rat IL-33 is BC081993. The rat IL-33 cDNA was subcloned into the expression vector pTrcHis-TOPO (Invitrogen), starting with amino acid 109 of the full-length protein with an N-terminal His tag. After sequencing, One-shot TOP10 bacteria (Invitrogen) were transformed and expression was induced with Isopropyl β-D-1-thiogalactopyranoside (Sigma). Four hours after induction, bacteria were harvested, and the pellet was resuspended in B-PER Bacterial Protein Extraction Reagent (Pierce) with EDTA-free protease inhibitor cocktail (Sigma). The lysate was purified with Ni-chelating affinity chromatography using a Ni-NTA Purification system (Invitrogen). Briefly, Ni NTA beads were washed twice after batch binding with 40 ml of 20 mM Imidazole, 300 mM NaCl, 50 mM potassium phosphate, pH 8.0. IL-33 was eluted with 10 ml of 250 mM Imidazole, 300 mM NaCl, 50 mM potassium phosphate, pH 8.0. IL-33 protein was further concentrated, dialyzed and purified by high-performance liquid chromatography (BioLogic DuoFlow System, Bio-Rad, Hercules, Calif.) using HiPrep sephacryl size exclusion column (GE Healthcare Bioscience, Piscataway, N.J.) with buffer containing 150 mM NaCl, 50 mM potassium phosphate, pH 7.2. Endotoxin level (<0.03 EU/μg protein) was determined by Limulus Amebocyte Lysate PYROGENT Ultra (Cambrex) as previously described (12). […]

NF-κB = NF-κB nuclear binding activity by EMSA in cardiomyocytes; format: cell-based, rat
Protocol: Electromobility shift assays were performed as described previously (8). Cells were lysed for 10 minutes on ice in a solution containing 10 mM HEPES (pH 7.6), 15 mM KCl, 2 mM MgCl2, 0.1 mM ethylenediamine tetraacetic acid (EDTA), 1 mM dithiothreitol (DTT), 0.5 mM phenylmethylsulphonylfluoride (PMSF), 10 μg/mL leupeptin and 0.2% Nonident P-40. Dishes were gently scraped, and nuclei were collected by centrifugation at 800 g for 30 seconds and then suspended in a solution of 50 mM HEPES, 400 mM KCl, 0.1 mM EDTA, 10% glycerol, 1 mM DTT, 0.5 mM PMSF and 10 μg/mL leupeptin. The mixture was incubated on ice for 30 minutes, and the supernatant was collected after centrifugation for 15 minutes at 400 g. Binding reactions were performed with 5 or 10 μg of nuclear protein in 10 mM Tris, 1 mM DTT, 1 mM EDTA, 5% glycerol, 0.1% Triton X-100, 1 mg poly(dIdC), 5 μg bovine serum albumin (BSA) and approximately 10,000 cpm of −32P-labeled oligonucleotide. The binding reactions for AP-1 activity also contained 5 mM MgCl2. Control reaction mixtures contained a 100-fold excess of unlabeled oligonucleotide and were incubated with nuclear extracts of IL-1β-treated cells. DNA complexes were separated on a 4% nondenaturing polyacrylamide gel in Tris-HCl (6.7 mM), EDTA (1 mM) and ammonium acetate (3.3 mM). The oligonucleotides contained the NF-B binding site (sequence: 5′-AGTTGAGGGGACTTTCCCAGGC-3′ (SEQ ID NO: 15)) and were labeled by standard procedures.
EMSAs were performed as described previously (47). Cells were lysed for 10 minutes on ice in 10 mM HEPES (pH 7.6), 15 mM KCl, 2 mM MgCl2, 0.1 mM EDTA, 1 mM DTT, 0.5 mM PMSF, 10 μg/mL leupeptin, and 0.2% Nonident P-40. Dishes were gently scraped, and nuclei were collected by centrifugation at 800 g for 30 seconds and then suspended in a solution of 50 mM HEPES, 400 mM KCl, 0.1 mM EDTA, 10% glycerol, 1 mM DTT, 0.5 mM PMSF, and 10 μg/mL leupeptin. The mixture was incubated on ice for 30 minutes, and the supernatant was collected after centrifugation for 15 minutes at 400 g. Binding reactions were performed with 5 or 10 μg of nuclear protein in 10 mM Tris, 1 mM DTT, 1 mM EDTA, 5% glycerol, 0.1% Triton X-100, 1 mg poly(dIdC), […] BSA, and 10,000 cpm of [^32P]-labeled oligonucleotide. The specific NF-κB consensus oligonucleotides were 5′-[…]-3′ (SEQ ID NO: 15) and 5′-[…]-3′ (SEQ ID NO: 18) (Promega). Positive and negative control mixtures as well as specific competition mixtures were made as recommended by the manufacturer's instructions, using binding buffer with positive samples, labeled NF-κB oligonucleotides and 10-fold excess of cold NF-κB consensus oligonucleotides for specific competition. DNA complexes were separated on a 6% nondenaturing polyacrylamide gel in Tris-HCl (6.7 mM), EDTA (1 mM), and ammonium acetate (3.3 mM).

[1] = system: WT and ST2−/− mice after TAC; details: for induction of ANP and BNP gene expression after TAC: left ventricle 1 week after operation;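 on all read-outs here: ST2−/− mice and WT littermates, 8-10 weeks old at the time of TAC surgery where applicable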
Protocol: Targeted ST2 ablated mice and their wild-type littermates were employed for the experiment simultaneously. TAC was produced as described previously (11-13) on 8-10 week old mice. Some mice underwent daily intraperitoneal (i.p.) injection of IL-33 (2 μg suspended in 100 microliters of PBS with 0.2% bovine serum albumin) or vehicle beginning from the day after TAC operation to the day of harvest.
Formalin-fixed, paraffin-embedded sections were prepared as previously described (42). For immunohistochemistry, the first antibodies used were anti-cleaved caspase-3 (Cell Signaling Technology) and anti-mac3 (BD Biosciences, San Jose, Calif.). For TUNEL analysis, the In Situ apoptosis detection kit (Chemicon, Temecula, Calif.) was used along with the manufacturer's protocol with some optimal modifications on the treatment periods.
Targeted ST2−/− mice and their WT littermates were employed for the experiments. TAC was produced as described previously (49, 50) on 8-10 week old mice. All operative procedures were performed by a single operator with over 20 years rodent cardiac surgery experience who was blinded to genotype and the randomized treatment assignment. Following the procedure, each mouse received daily i.p. injection of recombinant rat IL-33 (2 μg) or vehicle from the day after TAC operation until the day of harvest.
Echocardiographic acquisition and analysis were performed by an echocardiographer blinded to treatment group. […] All images were taken at a heart rate greater than 400 beats per minute to minimize effects of anesthesia, using a Sonos-4500 (Philips) and a 15-MHz transducer. Three consecutive cardiac cycles were averaged. Left ventricular mass was calculated by the M-mode method (51). Left ventricular fractional shortening was calculated as (EDD−ESD)/EDD×100%, where EDD is end-diastolic dimension and ESD is end-systolic dimension.
A planimetry image analysis program was used by an investigator blinded to treatment group to quantitate the 30 high power field regions randomly selected in each slice with Hematoxylin-eosin stain (for cross-sectional area) or Sirius-red stain (for fibrotic area). Cross sectional area of cardiomyocytes was measured as described previously (52). Fibrotic area was calculated as (red area/total area)×100%. The scores from all slices were averaged to calculate their respective values.

[2] = ST2−/− mice, 4 weeks after operation
[3] = WT mice surviving 8 weeks after TAC
[4] = WT mice, IL-33 2 μg/day i.p. for 4 weeks

B1: IL-33: recombinant mature rat IL-33, starting with amino acid 109 of the full-length protein, N-terminal His tag (GenBank BC081993) (protein)
chain: SIQGTSLLTESCALSTYNDQSVSFVLENGCYVINVEDCGKNQEKDKVLLRYYESSFPAQSGDGVDGKKLMVNMSPIKDTDIWLNANDKDYSVELQKGDVSPPDQAFFVLHKKSSDFVSFECKNLPGTYIGVKDNQLALVEENDESCNNIMFKLSKM
modifications: left off: small tags and cut ends
For B1, the “binding to mouse ST2 (pulldown with ST2-Fc chimera protein)” value (mouse ST2) was “bound to the mouse ST2 protein”, the “binding to mouse ST2 (pulldown with ST2-Fc chimera protein)” value (mouse ST2; listed as recombinant IL-33) was “exhibits specific binding to mouse ST2” and the “reduction of NF-κB nuclear binding activity induced by PDGF-BB or TNF-α” value (NF-κB; PDGF-BB (10 ng/ml) or TNF-α (10 ng/ml), IL-33 10 ng/ml) was “not observed; also recorded: did not block”. The “NF-κB activation by agent alone” value (NF-κB; cardiomyocytes, angiotensin-II 1 μM, phenylephrine 50 μM, IL-33 10 ng/ml) was “independently activated NF-κB in both cell types; also recorded: mildly activated NF-κB”, the “angiotensin-II- or phenylephrine-induced NF-κB activation” value (NF-κB; cardiomyocytes, co-treatment with IL-33 10 ng/ml) was “markedly attenuated” and the “percentage of TUNEL positive nuclei in myocardium” value ([1]; 4 weeks after operation) was “not changed; also recorded: did not affect TUNEL positivity”. For the same molecule, the “Gross Heart/Body Weight after TAC” value ([1]; ST2−/− mice) was “not in ST2−/− mice”, the “NF-κB nuclear binding activity in left ventricular myocardium” value ([1]; ST2−/− mice, 1 week after operation) was “not in ST2−/− mice; also recorded: modest increase in NF-κB binding” and the “hypertrophy by echocardiography after TAC” value [1, 2] was “not in ST2−/− littermates”. For the same molecule, the “increased left ventricular dilation and reduced fractional shortening after TAC” value [1, 2] was “not reversed”, the “induction of ANP and BNP gene expression after TAC” value ([1]; ST2−/− mice) was “not in ST2−/− mice” and the “Gross Heart/Body Weight after TAC” value ([1]; WT mice) was “antihypertrophic effect of IL-33 in WT mice”. The “survival after TAC” value ([1]; WT mice) was “significantly improved survival in WT mice after TAC; also recorded: improved pathological changes and survival in WT mice”, the “fractional shortening (echocardiography)” value [1, 3] was “increased fractional shortening” and the “left ventricular wall thickness (echocardiography)” value [1, 3] was “reduced wall thickness”. The “NF-κB nuclear binding activity in left ventricular myocardium after TAC” value ([1]; WT mice, 1 week after operation) was “inhibited NF-κB induction only in WT mice; also recorded: reversed these changes only in WT mice”, the “macrophage infiltration in myocardium after TAC” value ([1]; WT mice, 1 week, co-treatment with IL-33) was “decreased by co-treatment with IL-33; also recorded: reduced macrophage infiltration after TAC only in WT mice” and the “hypertrophy by echocardiography after TAC” value ([1]; WT mice, 4 weeks after operation) was “reduced hypertrophy only in WT mice”. The “cardiac fibrosis (Sirius-red) after TAC” value [1, 4] was “reduced cardiac fibrosis; also recorded: significantly improved these changes in WT mice”, the “cardiomyocyte hypertrophy (cross-sectional area) after TAC” value [1, 4] was “reduced cardiac fibrosis and cardiomyocyte hypertrophy; also recorded: significantly improved these changes in WT mice” and the “induction of ANP and BNP gene expression after TAC” value ([1]; WT mice) was “markedly attenuated induction of both genes in WT; also recorded: effectively reversed the induction of these hypertrophic genes in WT mice with TAC; also recorded: reversed these changes only in WT mice”. For the same molecule, the “macrophage infiltration in myocardium, IL-33 alone” value ([1]; WT or ST2−/− mice without TAC, 1 week of treatment) was “did not significantly increase macrophage infiltration; also recorded: not observed; also recorded: did not induce macrophage infiltration” and the “echocardiographic parameters under non-stress conditions” value ([1]; no TAC) was “no significant change”.
